How the values were obtained:
[1] = biological target: aprataxin FHA domain, recombinant, Lys38Ala (human) (UniProt Q7Z2E3); assay: ITC
[2] = biological target: aprataxin FHA domain, recombinant, wild type (human) (UniProt Q7Z2E3); assay: ITC

| Substance | Kd [1] [µM] | Kd [2] [µM] |
| --- | --- | --- |
| MDC1 14-residue peptide phosphorylated on S329 and T331 | 80 | 5.6 |
| MDC1 14-residue peptide phosphorylated only on T331 |  | 58 |

Source: PMC2836575
